Assay results as given in US4493829A, “Bio-available succinylated protein-iron derivatives which do not cause gastric lesions, method of preparation and related pharmaceutical compounds” (Italfarmaco S.p.A., priority 1982, dated 1985).

Key:
[1] = Haematic levels after oral administration: Ferrolat-ferrous sulphate comparison; set-up: species or system male Wistar rats; settings: rat, in vivo, 1 mg/kg
Experimental: Male Wistar rats, weighing approximately 200 grammes and starved for 18 hours were taken, randomized and separated into groups of 5; each group had been sacrificed at the determined hour and blood was taken from each animal by resecting the carotid; the amount of iron in the blood of each animal of the group was determined spectrophotometrically by means of bathophenanthrolinsulphonic acid (Fe-test, Wako). The administration was carried out by a probe in an acqueous solution (5 ml/kg).
The succinyl ferroprotein derivative which was used was prepared as in example 1 (Ferrolat). It can be seen that the quantity of iron/kg. was the same for both the derivatives (Fe: 1 mg/kg).

[2] = Haematic levels after oral administration: Ferrolat-ferritin comparison; type: in vivo, male Wistar rats; settings: 1 mg/kg Fe oral
Experimental: Male Wistar rats, weighing approximately 200 grams and starved for 18 hours, were taken, randomized and separated into groups of 9; each group was sacrificed at the determined hour and blood was taken from each animal by resecting the carotid. The amount of iron in the blood of each animal of the group was determined spectrophotometrically by means of the Iron Colorimetric Method (Boehringer-Mannheim). The administration was carried out by a probe in an acqueous solution (5 ml/kg). Dosages and results are shown in table X. It can be seen that the quantity of iron/kg for the succinyl ferroprotein derivative indicated as Ferrolat was that of ferritin (Sigma, St. Louis, Mo.) and equal to 1 mg/kg.

[3] = cited from earlier work
[4] = ferritin based treatment; cited from earlier work
[5] = Haematic levels: comparison between succinyl ferroprotein derivatives from different types of proteins; type: in vivo, male Wistar rats; settings: two hours after administration, 1 mg/kg Fe oral
Experimental: Male Wistar rats, weighing approximately 200 grams and starved for 18 hours, were taken, randomized and separated into groups of 5 (one per dose of derivative and a control group). Each group was sacrificed two hours after administration and, by resecting the carotid, blood was taken from each animal and the iron content in the blood was determined by means of bathophenanthrolinsulphonic acid Fe-test, Wako). The oral administration was carried out by a probe in an aqueous solution (5 ml/kg). The doses of individual derivatives which were used were selected so that 1 mg/kg of Fe was always administered.

In the case of `O=S(=O)([O-])[O-].[Fe+2]` [FeSO4 7H2 O, ferrous sulphate], the Serum iron ([1]; 0.5 h) is reported as 336.27 μg %, the Serum iron ([1]; 1 h) is reported as 272.14 μg % and the Serum iron ([1]; 2 h) is reported as 273.56 μg %. For the same molecule, the Serum iron ([1]; 4 h) was 129.50 μg % and the Serum iron ([1]; 6 h) was 80.52 μg %.

Work on Ferritin yielded a Serum iron ([2]; 1 hour after treatment) of 168.79 μg/100 ml, a Serum iron ([2]; 2 hours after treatment) of 170.66 μg/100 ml and a Serum iron ([2]; 4 hours after treatment) of 148.08 μg/100 ml. For the same molecule, the Serum iron ([2]; 6 hours after treatment) was 89.22 μg/100 ml, the solubility in water [3] was “soluble in water” and the gastrointestinal side effects [4] was “does not result in the gastrointestinal side effects”.

B1: Succ. ovalbumin: iron derivatives from succinylated egg proteins (ovalbumin) (protein, UniProt P01012 2-386, looked up)
Ovalbumin: GSIGAASMEFCFDVFKELKVHHANENIFYCPIAIMSALAMVYLGAKDSTRTQINKVVRFDKLPGFGDSIEAQCGTSVNVHSSLRDILNQITKPNDVYSFSLASRLYAEERYPILPEYLQCVKELYRGGLEPINFQTAADQARELINSWVESQTNGIIRNVLQPSSVDSQTAMVLVNAIVFKGLWEKAFKDEDTQAMPFRVTEQESKPVQMMYQIGLFRVASMASEKMKILELPFASGTMSMLVLLPDEVSGLEQLESIINFEKLTEWTSSNVMEERKIKVYLPRMKMEEKYNLTSVLMAMGITDVFSSSANLSGISSAESLKISQAVHAAHAEINEAGREVVGSAEAGVDAASVSEEFRADHPFLFCIKHIATNAVLFFGRCVSP
modifications: 95% succinylated, iron derivative 3.6% Fe
In the case of B1, the “serum iron average values ± SE” value [5] is reported as 235.82 ± 46.06 μg/100 ml.
